# Positions count from the first letter of the chain named. Numbers in names are those of the source. Where “and” joins values, the source holds several entries; their conditions need not be identical. Equal values may be shown once.
# B1: Aldehyde responsive quorum-sensing Inhibitor (ArqI), wild type, purified (natural protein)
# chain: SGGGMTYHVLVQFDVPSDKREAFAAAGLFDANGSLQNEPGTLRFEVIRDENNRNRFYLDEVYEDEAAFLQHCRNETIARFYELIDSYAFGPLFLFKGYRVEG
# notes: also called PA0709; WT ArqI
# B2: ArqI R49Q variant, purified (natural protein)
# chain: B1 chain with R53Q
# notes: source: E. coli, purified as the wild type
# B3: ArqI P87G variant, purified (natural protein)
# chain: B1 chain with P91G
# notes: as for B2
# B4: ArqI R16A variant, purified (natural protein)
# chain: B1 chain with R20A
# modifications: in the crystal: βME-modified Cys68
# notes: source: E. coli, purified as the wild type (Ni-NTA, ULP1 cleavage, SEC)
# Experiments:
# PqsA (PqsAFL) = biological target: T1, PqsA (PqsAFL) (Pseudomonas aeruginosa, UniProt Q9I4X3); test: anthraniloyl-CoA formation, absorbance at […] nm; format: biochemical; conditions: assay with added ArqI
# T1 construct: full length, expressed in E. coli T7 Express with 6x-His-CPD tag, tag cut
# [1] = biological target: T2, ArqI (PA0709), Aldehyde responsive quorum-sensing Inhibitor (Pseudomonas aeruginosa, UniProt Q9I5L9); test: X-ray crystallography and mass spectrometry of Arg49 adduct; format: binding; conditions: covalent; Arg49 in chains C, D, E; hemiaminal or carboxymethylarginine adduct (+58 amu)
# T2 construct: full length (98 residues), expressed in E. coli as His6-SUMO fusion, SUMO tag cut, N-terminal SGGG left; hexamer; numbering from Met1
# [2] = biological target: T3, PqsA full-length protein, purified (Pseudomonas aeruginosa MPAO1, UniProt Q9I4X3 1-517); test: other fluorescence titration; conditions: both partners purified
# T3 construct: also called PqsAFL; FL
# T3 sequence: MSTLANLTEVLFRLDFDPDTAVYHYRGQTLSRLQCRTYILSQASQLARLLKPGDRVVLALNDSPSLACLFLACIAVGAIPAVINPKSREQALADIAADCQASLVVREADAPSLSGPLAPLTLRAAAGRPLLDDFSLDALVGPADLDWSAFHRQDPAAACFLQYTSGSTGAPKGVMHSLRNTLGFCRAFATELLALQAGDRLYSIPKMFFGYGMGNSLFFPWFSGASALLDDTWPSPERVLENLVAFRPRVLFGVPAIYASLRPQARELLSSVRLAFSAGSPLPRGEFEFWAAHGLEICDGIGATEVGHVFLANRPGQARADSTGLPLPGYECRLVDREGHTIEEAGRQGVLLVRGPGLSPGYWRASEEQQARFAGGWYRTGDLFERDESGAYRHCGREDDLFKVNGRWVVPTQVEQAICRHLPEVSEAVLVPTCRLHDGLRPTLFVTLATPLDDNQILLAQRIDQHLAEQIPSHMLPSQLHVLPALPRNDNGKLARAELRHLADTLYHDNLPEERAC
# [3] = biological target: the molecule itself; test: crystal structure; native ArqI, crystals from 50 mM sodium acetate pH 5.0, 12% PEG 4000; C 222_1 cell, 6 subunits in the asymmetric unit, 2.0 Å
# [4] = biological target: the molecule itself; test: SEC; HiLoad Superdex 75 16/600 pg or Superose 6 Increase 10/300 GL; 2 mL at 10 mg/mL; 50 mM Tris-Cl pH 8.0, 150 mM NaCl, 1 mM βME (a buffer with 500 mM NaCl, pH 7.4, is also named); RT
# crystal structure = biological target: the molecule itself; test: crystal structure
molecule,measurement,setting,value
Nc1ccccc1C(=O)O [anthranilate],"anthraniloyl-CoA formation, absorbance at 375 nm",PqsA (PqsAFL); with CoA and ATP,"purified PqsA protein with CoA, ATP, and anthranilate"
"O=CC=O [GO, glyoxal]",X-ray crystallography and mass spectrometry of Arg49 adduct,[1],"A glyoxal modification was observed on Arg49 for three subunits (chains C, D and E)"
"CC(C)(COP(=O)(O)OP(=O)(O)OC[C@H]1O[C@@H](n2cnc3c(N)ncnc32)[C@H](O)[C@@H]1OP(=O)(O)O)[C@@H](O)C(=O)NCCC(=O)NCCS [CoA, coenzyme A]","anthraniloyl-CoA formation, absorbance at 375 nm",PqsA (PqsAFL); with anthranilate and ATP,"purified PqsA protein with CoA, ATP, and anthranilate"
B1,Kd,[2],43 µM
same,stoichiometry N,[3],6
B2,stoichiometry N,[4],6 and 2
B3,stoichiometry N,[4],2
B4,stoichiometry N,crystal structure,6
same,stoichiometry N,[4],2

# From PMC12274486, “A glyoxal-specific aldehyde signaling axis in Pseudomonas aeruginosa that influences quorum sensing and infection” (Nature Communications, 2025)
